In paper PMC4627809, “Client Proteins and Small Molecule Inhibitors Display Distinct Binding Preferences for Constitutive and Stress-Induced HSP90 Isoforms and Their Conformationally Restricted Mutants” (PLoS ONE, 2015):

Biological target: T1, FLAG-HSP90α wild type (human, UniProt P07900 1-732)
T1 construct: HSP90α, stress-inducible cytosolic HSP90 isoform, encoded by HSP90AA1, human; The plasmid list names only pcDNA3-FLAG-HSP90α; the LUMIER methods call the protein 3XFLAG-tagged; also called HSP90α WT; 3XFLAG-HSP90α; source: HEK293, transfected, in lysate
Assay: LUMIER; HEK293 in 96-well plates co-transfected with NanoLuc-client and 3XFLAG-HSP90α or β; TGNET lysate on anti-FLAG antibody-coated plate 2 h at 4°C; NanoLuc read-out divided by anti-FLAG-HRP read-out = relative interaction strength
Conditions: partners not purified

- fold difference in relative interaction strength, HSP90α against HSP90β: ~3 fold
B1: NL-RHOBTB2/DBC2 (natural protein, UniProt Q9BYZ6 1-727, looked up)
chain: MDSDMDYERPNVETIKCVVVGDNAVGKTRLICARACNATLTQYQLLATHVPTVWAIDQYRVCQEVLERSRDVVDDVSVSLRLWDTFGDHHKDRRFAYGRSDVVVLCFSIANPNSLHHVKTMWYPEIKHFCPRAPVILVGCQLDLRYADLEAVNRARRPLARPIKPNEILPPEKGREVAKELGIPYYETSVVAQFGIKDVFDNAIRAALISRRHLQFWKSHLRNVQRPLLQAPFLPPKPPPPIIVVPDPPSSSEECPAHLLEDPLCADVILVLQERVRIFAHKIYLSTSSSKFYDLFLMDLSEGELGGPSEPGGTHPEDHQGHSDQHHHHHHHHHGRDFLLRAASFDVCESVDEAGGSGPAGLRASTSDGILRGNGTGYLPGRGRVLSSWSRAFVSIQEEMAEDPLTYKSRLMVVVKMDSSIQPGPFRAVLKYLYTGELDENERDLMHIAHIAELLEVFDLRMMVANILNNEAFMNQEITKAFHVRRTNRVKECLAKGTFSDVTFILDDGTISAHKPLLISSCDWMAAMFGGPFVESSTREVVFPYTSKSCMRAVLEYLYTGMFTSSPDLDDMKLIILANRLCLPHLVALTEQYTVTGLMEATQMMVDIDGDVLVFLELAQFHCAYQLADWCLHHICTNYNNVCRKFPRDMKAMSPENQEYFEKHRWPPVWYLKEEDHYQRARKEREKEDYLHLKRQPKRRWLFWNSPSSPSSSAASSSSPSSSSAVV
notes: E3-ubiquitin ligase RHOBTB2/DBC2; also called RHOBTB2 fused to NanoLuc luciferase; source: HEK293, transfected, in lysate; not shown: NanoLuc luciferase, N-terminal, kept
